Laboratory results: publication doi:10.1101/2021.09.12.459968 (bioRxiv, 2021)
Each block holds one binder with its values, some of them ahead of it.

Legend:
[1] = biological target: the molecule itself; assay: negative-staining electron microscopy
[2] = biological target: full-length mouse NLRP3 (FLAG-mScarlet tag removed), double ring cage (mouse, UniProt Q8R4B8 1-1033); assay: co-sedimentation

B1: mouse NLRP3 LRRm6 (K970E_Q1001R_F1029A) (natural protein)
chain: MTSVRCKLAQYLEDLEDVDLKKFKMHLEDYPPEKGCIPVPRGQMEKADHLDLATLMIDFNGEEKAWAMAVWIFAAINRRDLWEKAKKDQPEWNDTCTSHSSMVCQEDSLEEEWMGLLGYLSRISICKKKKDYCKMYRRHVRSRFYSIKDRNARLGESVDLNSRYTQLQLVKEHPSKQEREHELLTIGRTKMRDSPMSSLKLELLFEPEDGHSEPVHTVVFQGAAGIGKTILARKIMLDWALGKLFKDKFDYLFFIHCREVSLRTPRSLADLIVSCWPDPNPPVCKILRKPSRILFLMDGFDELQGAFDEHIGEVCTDWQKAVRGDILLSSLIRKKLLPKASLLITTRPVALEKLQHLLDHPRHVEILGFSEAKRKEYFFKYFSNELQAREAFRLIQENEVLFTMCFIPLVCWIVCTGLKQQMETGKSLAQTSKTTTAVYVFFLSSLLQSRGGIEEHLFSDYLQGLCSLAADGIWNQKILFEECDLRKHGLQKTDVSAFLRMNVFQKEVDCERFYSFSHMTFQEFFAAMYYLLEEEAEGETVRKGPGGCSDLLNRDVKVLLENYGKFEKGYLIFVVRFLFGLVNQERTSYLEKKLSCKISQQVRLELLKWIEVKAKAKKLQWQPSQLELFYCLYEMQEEDFVQSAMDHFPKIEINLSTRMDHVVSSFCIKNCHRVKTLSLGFFHNSPKEEEEERRGGRPLDQVQCVFPDTHVACSSRLVNCCLTSSFCRGLFSSLSTNRSLTELDLSDNTLGDPGMRVLCEALQHPGCNIQRLWLGRCGLSHQCCFDISSVLSSSQKLVELDLSDNALGDFGIRLLCVGLKHLLCNLQKLWLVSCCLTSACCQDLALVLSSNHSLTRLYIGENALGDSGVQVLCEKMKDPQCNLQKLGLVNSGLTSICCSALTSVLKTNQNFTHLYLRSNALGDTGLRLLCEGLLHPDCKLQMLELDNCSLTSHSCWNLSTILTHNHSLRELNLGNNDLGDLCVVTLCEVLKQQGCLLQSLRLGEMYLNRETKRALEALQEEKPELTIVAEISW
- binding result [1]: binds

- binding result [2]: binds
B2: recombinant full-length mouse NEK7 (enzyme)
chain: not shown
